# Substitutions are numbered along the chain they refer to. Several values for one entry are separate records, joined by “and”; a condition that tells them apart may be missing. Equal values may be shown once.
# B1: HUM03 (antibody, human IgG1, V domains shown)
# VH: QVQLQQSGPGLVKPSQTLSLTCAISGYTFTSYNMHWVRQATGQGLEWMGAIYPGNGDTSYNQKFKGRLTISKDTSKNQVVLTMTNMDPVDTATYYCARGGTGFAYWGQG
# VL: DIQMTQSPSSLSASVGDRVTITCKASQSVSNDVAWYQQKPGQAPRLLIYYASNRYTGIPPRFSGSGYGTDFTLTINNIESEDAAYYFCQQDYSSPWTFGQG
# notes: also called Humanized 4C11; humanized 4C11 hum03
# B2: HUM10 (antibody, human IgG1, V domains shown)
# VH: QVQLQQSGPGLVKPSQTLSLTCAISGYTFTSYNMHWIRQPPGKGLEWIGAIYPGNGDTSYNQKFKGRVTITADKSTSTAYMELSSLRSEDTAVYYCARGGTGFAYWGQG
# VL: B1 VL
# notes: also called humanized 4C11 variant HUM10
# B3: HUM08 (antibody, human IgG1, V domains shown)
# VH: B1 VH
# VL: DIQMTQSPSSLSASVGDRVTITCKASQSVSNDVAWYLQKPGQSPQLLIYYASNRYTGVPSRFSGSGSGTDFTFTISSLEAEDAATYYCQQDYSSPWTFGQG
# notes: also called humanized 4C11 variant HUM08
# B4: HUM05 (antibody, human IgG1, V domains shown)
# VH: QVQLQESGPGLVKPSQTLSLTCTVSGYTFTSYNMHWVRQAPGQGLEWMGAIYPGNGDTSYNQKFKGRVTISVDTSKNQFSLKLSSVTAADTAVYYCARGGTGFAYWGQG
# VL: B3 VL
# notes: also called humanized 4C11 variant HUM05
# B5: HUM04 (antibody, human IgG1, V domains shown)
# VH: EVQLVQSGAEVKKPGESLRISCKGSGYTFTSYNMHWVRQATGQGLEWMGAIYPGNGDTSYNQKFKGRFTISRDDSKNTAYLQMNSLKTEDTAVYYCARGGTGFAYWGQG
# VL: B3 VL
# notes: also called humanized 4C11 variant HUM04
# B6: HUM07 (antibody, human IgG1, V domains shown)
# VH: B2 VH with I37V, P40A, P41T, K43Q, I48M
# VL: B3 VL
# notes: also called humanized 4C11 variant HUM07
# B7: HUM02 (antibody, human IgG1, V domains shown)
# VH: B2 VH
# VL: B3 VL with Y36F, L37Q, K39R, Q45R, L46R
# notes: also called humanized 4C11 variant HUM02
# B8: HUM01 (antibody, human IgG1, V domains shown)
# VH: QVQLVQSGAEVKKPGASVKVSCKASGYTFTSYNMHWVRQATGQGLEWMGAIYPGNGDTSYNQKFKGRVTITADKSTSTAYMELSSLRSEDTAVYYCARGGTGFAYWGQG
# VL: EIVMTQSPATLSVSPGERATLSCKASQSVSNDVAWYQQKPGKAPKLLIYYASNRYTGIPPRFSGSGYGTDFTLTINNIESEDAAYYFCQQDYSSPWTFGQG
# notes: also called humanized 4C11 variant HUM01
# B9: HUM09 (antibody, human IgG1, V domains shown)
# VH: B8 VH
# VL: DIVMTQTPLSLPVTPGEPASISCKASQSVSNDVAWYQQKPGQAPRLLIYYASNRYTGIPPRFSGSGYGTDFTLTINNIESEDAAYYFCQQDYSSPWTFGQG
# notes: also called humanized 4C11 variant HUM09
# B10: HUM06 (antibody, human IgG1, V domains shown)
# VH: B8 VH
# VL: B1 VL
# notes: also called humanized 4C11 variant HUM06
# B11: murine 4C11 (IgG1) antibody (antibody, V domains shown)
# VH: QAYLQQSGAELVRPGASVKMSCKASGYTFTSYNMHWVKQTPRQGLEWIGAIYPGNGDTSYNQKFKGKATLTVDKSSSTAYMQLSSLTSEDSAVYFCARGGTGFAYWGQGTLVTVSA
# VL: SIVMTQTPKFLLVSAGDRVTITCKASQSVSNDVAWYQQKPGQSPKLLIYYASNRYTGVPDRFTGSGYGTDFTFTISTVQAEDLAVYFCQQDYSSPWTFGGGTKLEIKR
# notes: also called NET1-M-mAb; 4C11 murine IgG1
# B12: 4C11 Fab (Fab, V domains shown)
# VH: B11 VH
# VL: SIVMTQTPKFLLVSAGDRVTITCKASQSVSNDVAWYQQKPGQSPKLLIYYASNRYTGVPDRFTGSGYGTDFTFTISTVQAEDLAVYFCQQDYSSPWTFGGGTKLEIK
# notes: only the variable domains are tied to it; also called Fab fragment of murine 4C11
# B13: 4C11 Fab′2 (other)
# VH: B11 VH
# VL: B12 VL
# notes: only the variable domains are tied to it; also called Fab′2 fragment of murine 4C11
# B14: 4C11 murine IgG2a (antibody, V domains shown)
# VH: B11 VH
# VL: B12 VL
# Molecular target: T1, FLAG-tagged netrin-1 (Adipogen) (human, UniProt O95631 25-604, limits assumed)
# T1 construct: Bought protein; also called FLAG®-tagged Netrin-1 (APOTECH); not shown: FLAG tag
# Assay: competition ELISA: FLAG-netrin-1 binding to coated UNC5B-Fc
# Procedure: (§1) After three washings with 300 μL of PBS-0.05% TWEEN®-20 (PBS-T), the plate was blocked by addition of 100 μL of PBS-2% BSA and incubated 1 hour at room temperature. After three washings with 300 μL of PBS-T, the plate was incubated for 1 hour at room temperature, with 100 μL of PBS-1% BSA containing 50 ng/mL FLAG®-tagged netrin-1 (Adipogen) and various quantities (0.2 ng to 3000 ng) of the 4C11 antibody. After three washings with 300 μL of PBS-T, 100 μL of an anti-FLAG® M2 monoclonal antibody conjugated to horse radish peroxidase (HRP) (Sigma A8592) diluted 1/5,000 in PBST-1% BSA was added and the plate was incubated 1 hour at room temperature. After three washings with 300 μL of PBS-T, 100 μL of a luminescent substrate of HRP (ECL western blotting substrate, PIERCE) is added. After 5 to 10 minutes, the luminescence was read on a Tecan Infinite F-500 luminometer.
row,IC50,Binder
1,0.065 µg/mL and 0.434 nM,B1
2,0.11 µg/mL and 0.734 nM,B2
3,0.077 µg/mL and 0.514 nM,B3
4,0.085 µg/mL and 0.567 nM,B4
5,0.199 µg/mL and 1.33 nM,B5
6,0.089 µg/mL and 0.594 nM,B6
7,0.215 µg/mL and 1.43 nM,B7
8,0.054 µg/mL and 0.36 nM,B8
9,0.071 µg/mL and 0.474 nM,B9
10,0.082 µg/mL and 0.547 nM,B10
11,0.075 µg/mL and 0.502 nM,B11
12,0.844 µg/mL and 16.9 nM,B12
13,0.089 µg/mL and 0.89 nM,B13
14,0.085 µg/mL and 0.567 nM,B14

# Molecular target: T2, His-tagged Netrin-1 (R&D 6419-N1) (human, UniProt O95631 25-604)
# T2 construct: Bought protein; also called adsorbed netrin-1; not shown: His tag
# Assay: ELISA, coated His-tagged netrin-1, luminescence
# Procedure: White 96-well microtiter plate (Costar 3912 Corning) was incubated overnight at 4° C. with 100 ng of His-tagged Netrin-1 (R&D 6419-N1) in 100 μL of Phosphate buffer saline (PBS). After three washings with 300 μL of PBS-0.05% TWEEN®-20 (PBS-T), the plate was blocked by addition of 100 μL of PBS-3% BSA and incubated 1 hour at room temperature. After three washings with 300 μL of PBS-T, the plate was incubated with various quantities (10 ng to 1200 ng) of the anti-netrin-1 antibody. After three washings with 300 μL of PBS-T, 100 μL of a relevant secondary antibody conjugated to horse radish peroxidase (e.g. goat anti-human IgG (Fc) Sigma A0170 or goat anti-mouse IgG light chain specific (kappa) Jackson Immunoresearch 115-035-174) diluted 1/10,000 in PBST-3% BSA was added and the plate was incubated 1 hour at room temperature. After three washings with 300 μL of PBS-T, 100 μL of a luminescent substrate of HRP (ECL western blotting substrate, PIERCE) is added. After 5 to 10 minutes, the luminescence was read on a Tecan Infinite F-500 luminometer.
row,EC50,Binder
1,0.166 µg/mL and 1.11 nM,B1
2,0.211 µg/mL and 1.41 nM,B2
3,0.134 µg/mL and 0.894 nM,B3
4,0.151 µg/mL and 1.01 nM,B4
5,0.198 µg/mL and 1.32 nM,B5
6,0.125 µg/mL and 0.834 nM,B6
7,0.26 µg/mL and 1.73 nM,B7
8,0.134 µg/mL and 0.894 nM,B8
9,0.153 µg/mL and 1.02 nM,B9
10,0.139 µg/mL and 0.927 nM,B10
11,0.057 µg/mL and 0.38 nM,B11
12,13 nM and 0.65 µg/mL,B12
13,0.035 µg/mL and 0.35 nM,B13
14,0.063 µg/mL and 0.42 nM,B14

# Molecular target: T3, human netrin-1 (human, UniProt O95631 25-604, limits assumed)
# T3 construct: also called NET1; netrin-I
# Assay: SPR (Biacore T100), 4C11 captured, netrin-1 as analyte, 25° C.; Exp 1
# Procedure: (§2) Murine 4C11 (IgG1) antibody (SEQ ID NO: 12 and 13) was captured via amine coupled capture molecules. A series with increasing concentrations of netrin-1 was injected. Chip surface with amine coupled capture molecule alone was used as reference control surface for correction of possible buffer-effects or non-specific binding of netrin-I.
# (§3) Analyte sample: Classical concentration series were measured at a flow rate of 50 μL/min by consecutive injection of the analyte in 5 or 6 increasing concentrations (c 2-164 nM). Running buffer: 20 mM Hepes pH7.4, 600 mM NaCl, 0.005% TWEEN® 20. The analyte was injected for 3 minutes followed by a dissociation phase of 90 s.
# (§4) Kinetic parameters were then calculated by using the usual double referencing (control reference: binding of analyte to capture molecule; Flow Cell: netrin-1 concentration “0” as Blank) and calculation with model ‘titration kinetics 1: 1 binding.
row,koff [s⁻¹],Binder
1,0.0018,B11

# Molecular target: T1, FLAG-tagged netrin-1 (Adipogen)
# Assay: competition ELISA: FLAG-tagged netrin-1 with rising 4C11 on coated UNC5B-Fc, bound netrin-1 detected with anti-FLAG-HRP, luminescence
# Procedure: FIG. 2: Inhibition of Netrin-1 binding onto UNC5B-Fc by 4C11. FLAG®-tagged Netrin-1 (APOTECH) in presence of various concentrations of 4C11 were incubated onto 96-well microtiter plate coated with UNC5B-Fc (Netris). Bound Netrin-1 was detected using an anti-FLAG® antibody conjugated with horseradish peroxidase (Sigma) and a chemiluminescent substrate (PIERCE ECL western blotting substrate). The luminescence was read on a Tecan Infinite F-500 luminometer.
# as §1
row,IC50 (read off the curve) [nM],Binder
1,~0.6,B11

# Molecular target: T3, human netrin-1
# Assay: SPR (Biacore T100), 4C11 captured, netrin-1 as analyte, 25° C.
# Procedure: as §2, §3, §4
Kd,kon [M⁻¹ s⁻¹],Binder
13.3 nM and 12.7 nM,140000,B11

# Molecular target: T1, FLAG-tagged netrin-1 (Adipogen)
# Assay: ELISA-type assay, netrin-1 coated on the plate (legend paragraph 28: FLAG-tagged Netrin-1, APOTECH; Example 3: His-tagged Netrin-1, R&D), anti-mouse IgG-HRP, luminescence
# Procedure: FIG. 1: ELISA binding assay of murine 4C11 to human Netrin-1. Various concentrations of 4C11 were incubated onto 96-well microtiter plate coated with FLAG®-tagged Netrin-1 (APOTECH). Bound 4C11 was detected using a goat anti-mouse IgG conjugated with horseradish peroxidase (Jackson Immunoresearch) and a chemiluminescent substrate (PIERCE ECL western blotting substrate). The luminescent was read on a Tecan Infinite F-500 luminometer.
row,EC50 (read off the curve) [ng/mL],Binder
1,~30,B11

# From patent publication US20200079842A1 (NETRIS PHARMA, published 2020)
